Measurements from paper doi:10.1101/2025.04.02.646914.

What was measured:
Assay in all cases: FP
MS2 coat protein W32A = MS2 coat protein W32A (bacteriophage MS2, UniProt P03612 2-130, W33A)
MS2 coat protein WT = MS2 coat protein WT (bacteriophage MS2, UniProt P03612 2-130)
MS2 coat protein N55D = MS2 coat protein N55D (bacteriophage MS2, UniProt P03612 2-130, N56D)

B1: 5' fluoro MS2 SL (structured_RNA)
RNA: CCUACAUGAGGAUUACCCAUGUU
- binding result (MS2 coat protein W32A): no binding
- binding result (MS2 coat protein WT): binds
- binding result (MS2 coat protein N55D): no binding
